In one series the test system is Substance P (SP). Briefly: Hydrolysis of Substance P (SP) by cholinesterase, flight mass spectrometry. The format is biochemical. Conditions: for first restriction site: SP C-terminal. As to the method:
Hydrolysis of SP was performed by acetylcholinesterase and butyrylcholinesterase separately.
1) Butyrylcholinesterase, specific activity 200 U, 50 mg of dry powder was dissolved in 5 mL of aqueous solution of iron(III) (double distilled water, Fe^+3 content, 1 mg/L) and centrifuged at 10,000 r/min for 4 minutes;
2) Butyrylcholinesterase, specific activity 200 U, 50 mg of dry powder was dissolved in 5 mL of double distilled water and centrifuged at 10,000 r/min for 4 minutes;
3) Acetylcholinesterase, specific activity 300 U, 20 mg of dry powder was dissolved in 1 mL of double distilled water and centrifuged at 10,000 r/min for 4 minutes.
SP, with purity 98%, in an aqueous solution at a concentration 0.5 μg/mL.
3. Reaction 100 μL of the substrate and 100 μL of enzyme were mixed, and the initial reaction temperature was 22° C.
Flight mass spectrometry: 1 μL of matrix (CHCA) and 1 μL of the reactant were mixed, and the mixture was directly assayed by flight mass spectrometry.

A further series relates to patient with tinea pedis. Nature of the series: Prevention and treatment of tinea pedis. The class given is in vivo. The method, then:
To 2 L of warm water lower than 40° C. was added 2 mL of acetylcholinesterase aqueous solution (enzyme activity 300 U), and stirred slowly. The feet of a patient were immersed in the solution for 30 minutes, two times per day for three consecutive days.

Series [1] deals with patient who caught a cold at early stage. Briefly: Prevention and treatment of common cold. The format is in vivo. Conditions: 200 U glycerol solution nasal spray. An excerpt: Acetylcholinesterase (enzyme activity 200 U) glycerol solution was sprayed to the nose of a patient who caught a cold at early stage, 3-5 times per day, one spray each time. Within an hour, symptoms such as headache and fever disappeared. Three days later, other symptoms disappeared, and overall wellbeing of the patient recovered to normal.

In series [2] the test system is patients with allergic rhinitis. Nature of the series: Prevention and treatment of allergic rhinitis. The format is in vivo. Conditions: 300 U glycerol solution nasal spray, 3-5 times per day for a week; a month later, in most patients. An excerpt: Acetylcholinesterase (enzyme activity 300 U) glycerol solution was sprayed to the nose of a patient, 3-5 times per day, one spray each time. The course of treatment lasted a week.

In series [3] the test system is patients with wound caused by trauma, burn or scald. Briefly: Prevention and treatment of trauma and inflammation. The format is in vivo. The conditions noted are these: enzyme activity 300 U, sprayed 1-3 times directly onto wound. An excerpt:
Acetylcholinesterase (enzyme activity 300 U) was sprayed 1-3 times directly onto a wound. If necessary, gauze pretreated with acetylcholinesterase may also cover the wound. […] Pains disappeared. If the wound was not already inflamed, inflammation was not observed, the wound recovered naturally, and a week later dead skin started to fall off. If the wound was inflamed, the inflammation would not develop; three days later, the wound recovered naturally. The mentioned-above wound was a wound caused by trauma, burn or scald.

Series [4] concerns patients with swelling gingivitis and pain. Nature of the series: Prevention and treatment of gingivitis. The class given is in vivo. Conditions: 300 U. As to the method: Patients suffered from swelling gingivitis and pain. Sterile cotton swab was wetted by acetylcholinesterase (enzyme activity 300 U) and placed on the affected area for 10 min, one or two times per day.
The subject of another series is Kunming mice. Briefly: Analgesic experiment on mice by acetic acid twisting method. The conditions noted are these: for Inhibition rate (%): compared with saline solution group; for Writhing number: within 15 minutes after 0.6% acetic acid i.p. The class given is in vivo. An excerpt: (§1) 1. Materials and Reagents
1) Reagents: acetic acid, manufactured by Guangdong Xinning Chemical Plant; butyrylcholinesterase (activity: 200 U per mL solution) prepared following the method of Example 2; Fenbid liniment (ibuprofen), produced by GlaxoSmithKline (China) Investment Co, Ltd., Product batch number: 04050471.
2) Animals: Kunming mice, 40, weight 20±2 g, of either sex.
Saline solution group (negative control group);
Experimental group 1, smeared with butyrylcholinesterase aqueous solution;
Experimental group 2, intraperitoneal injection with butyrylcholinesterase aqueous solution; and
Fenbid group (positive control group).
40 Kunming mice were randomly grouped with each group 10. The negative control group was administered 0.9% saline solution (0.1 mL/10 g) by intraperitoneal injection. An area of 1×1 cm of the hair of the mice of the experimental group 1 was cut in the back, and butyrylcholinesterase (enzyme activity: 200 U per mL solution) was smeared onto it. The experimental group 2 was administered 0.1 mL/10 g butyrylcholinesterase solution (enzyme activity: 200 U per mL solution) by intraperitoneal injection. An area of 1×1 cm of the hair of the mice of the positive control group was cut in the back, and Fenbid was smeared onto it. Each group of mice was fed in different cages. At 5 minutes after administration, following the method taught in Pharmacological Experimental Methodology (3rd Edition) (Xu Shuyun, et al., People's Health Publishing House, 2002, 1), each mouse was administered 0.6% acetic acid ([…]) by intraperitoneal injection, and the writhing number of mice within 15 minutes was recorded. The number was compared with that of saline solution group (0.9%) to calculate writhing inhibition rate in mice.

For series [5], the system named is patients with summer diarrhea. Briefly: Prevention and treatment of summer diarrhea. The format is in vivo. Conditions: 0.5 mL of 200 U aqueous solution in 3 mL cold water, rinsed in mouth and swallowed, repeated after two hours. As to the method: To 0.5 mL of butyrylcholinesterase (enzyme activity 200 U) aqueous solution, 3 mL of cold water was added. A portion of the solution was placed into the mouth of a patient, and lightly rinsed for 5-10 minutes. Then, the solution was swallowed. Two hours later, the previous steps were repeated.

In a further series the test system is Wister rats. Nature of the series: Anti-inflammatory experiment with adjuvant arthritis rats. The format is in vivo.
From the text: as §1
1) Reagents: butyrylcholinesterase aqueous solution (activity: 300 U per mL solution) prepared following the method of Example 2; Fenbid liniment (ibuprofen), manufactured by GlaxoSmithKline (China) Investment Co, Ltd., Product batch number: 04050471.
2) Animals: Wister rats, 30, weight 200±2 g, of either sex, from Laboratory Animal Center, Sun Yat-sen University.
Wister rats were randomly grouped into 3 groups with each group of 10. Following the method taught in Pharmacological Experimental Methodology (The third edition) (Xu Shuyun, et al., People's Health Publishing House, 2002, 1), each rat was administered 0.1 mL of Freund's adjuvant (FCA) in the right hindlimb by intradermal injection. After 0.5 h, the experimental group and Fenbid group were separately administered butylcholineterase aqueous solution and Fenbid in the inflammatory site of the right hindlimb, one time per day for a week. At 2 h, 6 h, 12 h, 24 h, 48 h, 72 h and 7 d after administration, the swelling degree of the right hindlimb of rats was separately measured by a vernier caliper.

The mark [6] stands for this setting: intraperitoneal injection 0.1 mL/10 g, 200 U per mL.

Several values for one entry are separate records, joined by “and”; a condition that tells them apart may be missing. Equal values may be shown once.

B1: Acetylcholinesterase (protein, UniProt P22303 32-614, looked up)
Acetylcholinesterase: EGREDAELLVTVRGGRLRGIRLKTPGGPVSAFLGIPFAEPPMGPRRFLPPEPKQPWSGVVDATTFQSVCYQYVDTLYPGFEGTEMWNPNRELSEDCLYLNVWTPYPRPTSPTPVLVWIYGGGFYSGASSLDVYDGRFLVQAERTVLVSMNYRVGAFGFLALPGSREAPGNVGLLDQRLALQWVQENVAAFGGDPTSVTLFGESAGAASVGMHLLSPPSRGLFHRAVLQSGAPNGPWATVGMGEARRRATQLAHLVGCPPGGTGGNDTELVACLRTRPAQVLVNHEWHVLPQESVFRFSFVPVVDGDFLSDTPEALINAGDFHGLQVLVGVVKDEGSYFLVYGAPGFSKDNESLISRAEFLAGVRVGVPQVSDLAAEAVVLHYTDWLHPEDPARLREALSDVVGDHNVVCPVAQLAGRLAAQGARVYAYVFEHRASTLSWPLWMGVPHGYEIEFIFGIPLDPSRNYTAEEKIFAQRLMRYWANFARTGDPNEPRDPKAPQWPPYTAGAQQYVSLDLRPLEVRRGLRAQACAFWNRFLPKLLSATDTLDEAERQWKAEFHRWSSYMVHWKNQFDHYSKQDRCSDL
Consider B1, for which, in the series on Substance P (SP), the “capacity of hydrolyzing SP” value is listed as “has the capacity of hydrolyzing SP”; the first restriction site entry is “between Leu^10 and Met^11”. Besides, in the series on Substance P (SP) (in water, 0-30 minutes, FIGS. 10-15), the “hydrolysis of C-terminal Met^11 of SP” value is reported as “hydrolyzed quickly”. Besides, the “SP fragment finally left” value in the series on Substance P (SP) (in water, FIGS. 10-15) is “only a 1-5 peptide fragment was left”. Besides, the pain entry in the series on patient with tinea pedis (2 mL of 300 U solution in 2 L warm water, feet immersed 30 minutes, two times per day, three days) is “disappeared”. Besides, the “ringworm spot, smell and other symptoms” value in the series on patient with tinea pedis (one week later) is reported as “all gone”. Further, the “symptoms such as headache and fever” value in series [1] (3-5 times per day, within an hour) is listed as “disappeared”. In [1] (three days later), the other symptoms result is reported as “disappeared”. Moreover, the “symptoms such as nasal obstruction, sneezing, runny nose, nose itching” value in series [2] is “disappeared, without relapse”. For the same molecule, in series [3], the pains result is “disappeared”; the “wound and inflammation in patients” value is listed as “reduced significantly”. Further, the “relapse and side effects” value in series [4] (cotton swab on affected area) is “without relapse and side effects”. In addition, the inflammatory swelling result in series [4] (cotton swab on affected area 10 min, one or two times per day, two days later) is reported as “disappeared”.

B2: Butyrylcholinesterase (protein, UniProt P06276 29-602, looked up)
Cholinesterase: EDDIIIATKNGKVRGMNLTVFGGTVTAFLGIPYAQPPLGRLRFKKPQSLTKWSDIWNATKYANSCCQNIDQSFPGFHGSEMWNPNTDLSEDCLYLNVWIPAPKPKNATVLIWIYGGGFQTGTSSLHVYDGKFLARVERVIVVSMNYRVGALGFLALPGNPEAPGNMGLFDQQLALQWVQKNIAAFGGNPKSVTLFGESAGAASVSLHLLSPGSHSLFTRAILQSGSFNAPWAVTSLYEARNRTLNLAKLTGCSRENETEIIKCLRNKDPQEILLNEAFVVPYGTPLSVNFGPTVDGDFLTDMPDILLELGQFKKTQILVGVNKDEGTAFLVYGAPGFSKDNNSIITRKEFQEGLKIFFPGVSEFGKESILFHYTDWVDDQRPENYREALGDVVGDYNFICPALEFTKKFSEWGNNAFFYYFEHRSSKLPWPEWMGVMHGYEIEFVFGLPLERRDNYTKAEEILSRSIVKRWANFAKYGNPNETQNNSTSWPVFKSTEQKYLTLNTESTRIMTKLRAQQCRFWTSFFPKVLEMTGNIDEAEWEWKAGFHRWNNYMMDWKNQFNDYTSKKESCVGL
Take B2: the “capacity of hydrolyzing SP” value with Substance P (SP) is listed as “has the capacity of hydrolyzing SP”. Also, the “amount of product, with Fe^+3 (FIG. 3) compared with without Fe^+3 (FIG. 8)” value in the series with Substance P (SP) (60 minutes) is given as “much more products having a molecular weight of 1104”. Moreover, the first restriction site result in the series on Substance P (SP) is “between Leu^10 and Met^11”. The “molecular weight of products detected” value in the series on Substance P (SP) (in water without Fe^+3, FIGS. 6-9) is 1217 and 1104. Also, in the series on Substance P (SP) (with Fe^+3 in water, at 25 minutes), the “molecular weight of product detected” value is reported as 1217. Also, the “molecular weight of new fragments detected” value in the series on Substance P (SP) (with Fe^+3 in water, at 60 minutes) is 1104 and 900. In addition, in the series with Kunming mice (either by intraperitoneal injection or by skin smearing, P<0.05), the “writhing number compared with the saline solution group” value is given as “significantly decreased the writhing number”. Besides, the “Inhibition rate (%)” value in the series with Kunming mice (setting [6]) was 26.6%; in the series on Kunming mice (smeared onto the back, 200 U per mL), 24.0%. Further, the Writhing number with Kunming mice (setting [6]) is recorded as 27.2 ± 9.50*Δ; with Kunming mice (smeared onto 1×1 cm cut area of the back), 29.9 ± 5.17. Also, in the series on Kunming mice (intraperitoneal injection, P<0.05), the “inhibition rate on writhing compared with Fenbid” value was “higher inhibition rate on writhing in mice than Fenbid”. Moreover, the “number of the patients with summer diarrhea” value in series [5] is recorded as “decreased greatly”. For the same molecule, the “Swelling degree of the right hind limb of rats” value is recorded as 0.74 ± 0.04 in the series with Wister rats (2 h after administration); 0.84 ± 0.04 with Wister rats (6 h after administration); 0.87 ± 0.05 in the series on Wister rats (12 h after administration); 0.83 ± 0.05 with Wister rats (24 h after administration); 0.74 ± 0.02 in the series with Wister rats (48 h after administration); 0.76 ± 0.05 with Wister rats (72 h after administration). In addition, in the series with Wister rats (7 d after administration), the “Swelling degree of the right hind limb of rats” value is recorded as 0.67 ± 0.06. Also, the “swelling degree compared with the negative control group” value in the series with Wister rats (at 48 h, 72 h and 7 d after administration, P<0.05) is on record as “significantly decrease the swelling degree”.

Values taken from patent US20090263370A1, “METHODS FOR TREATING TACHYKININ-MEDIATED DISEASES WITH CHOLINESTERASE” (priority 2006, published 2009).
